Assay results as given in paper doi:10.1101/2020.03.23.004119 (bioRxiv, 2020).

Molecular target: the molecule itself
Assay: two-hybrid

B1: hPFKFB4 mammalian two-hybrid fusion (pBind-PFKFB4 and pAct-PFKFB4) (enzyme, human, UniProt Q16877 1-469, looked up)
chain: MASPRELTQNPLKKIWMPYSNGRPALHACQRGVCMTNCPTLIVMVGLPARGKTYISKKLTRYLNWIGVPTREFNVGQYRRDVVKTYKSFEFFLPDNEEGLKIRKQCALAALRDVRRFLSEEGGHVAVFDATNTTRERRATIFNFGEQNGYKTFFVESICVDPEVIAANIVQVKLGSPDYVNRDSDEATEDFMRRIECYENSYESLDEDLDRDLSYIKIMDVGQSYVVNRVADHIQSRIVYYLMNIHVTPRSIYLCRHGESELNLKGRIGGDPGLSPRGREFAKSLAQFISDQNIKDLKVWTSQMKRTIQTAEALGVPYEQWKVLNEIDAGVCEEMTYEEIQDNYPLEFALRDQDKYRYRYPKGESYEDLVQRLEPVIMELERQENVLVICHQAVMRCLLAYFLDKAAEQLPYLKCPLHTVLKLTPVAYGCKVESIFLNVAAVNTHRDRPQNVDISRPPEEALVTVPAHQ
fold luciferase expression over the negative controls: 6 fold
